Data published in PMC6917504 (Biochemistry, 2017).

B1: Human concentrative nucleoside transporter 3 (hCNT3, SLC28A3), wild type, purified from High Five insect cells (natural protein, UniProt Q9HAS3 1-616, looked up)
chain: MELRSTAAPRAEGYSNVGFQNEENFLENENTSGNNSIRSRAVQSREHTNTKQDEEQVTVEQDSPRNREHMEDDDEEMQQKGCLERRYDTVCGFCRKHKTTLRHIIWGILLAGYLVMVISACVLNFHRALPLFVITVAAIFFVVWDHLMAKYEHRIDEMLSPGRRLLNSHWFWLKWVIWSSLVLAVIFWLAFDTAKLGQQQLVSFGGLIMYIVLLFLFSKYPTRVYWRPVLWGIGLQFLLGLLILRTDPGFIAFDWLGRQVQTFLEYTDAGASFVFGEKYKDHFFAFKVLPIVVFFSTVMSMLYYLGLMQWIIRKVGWIMLVTTGSSPIESVVASGNIFVGQTESPLLVRPYLPYITKSELHAIMTAGFSTIAGSVLGAYISFGVPSSHLLTASVMSAPASLAAAKLFWPETEKPKITLKNAMKMESGDSGNLLEAATQGASSSISLVANIAVNLIAFLALLSFMNSALSWFGNMFDYPQLSFELICSYIFMPFSFMMGVEWQDSFMVARLIGYKTFFNEFVAYEHLSKWIHLRKEGGPKFVNGVQQYISIRSEIIATYALCGFANIGSLGIVIGGLTSMAPSRKRDIASGAVRALIAGTVACFMTACIAGILSSTP
B2: hCNT3 Y266C/F463C double cysteine mutant (natural protein, human, UniProt Q9HAS3 1-691, looked up)
chain: MELRSTAAPRAEGYSNVGFQNEENFLENENTSGNNSIRSRAVQSREHTNTKQDEEQVTVEQDSPRNREHMEDDDEEMQQKGCLERRYDTVCGFCRKHKTTLRHIIWGILLAGYLVMVISACVLNFHRALPLFVITVAAIFFVVWDHLMAKYEHRIDEMLSPGRRLLNSHWFWLKWVIWSSLVLAVIFWLAFDTAKLGQQQLVSFGGLIMYIVLLFLFSKYPTRVYWRPVLWGIGLQFLLGLLILRTDPGFIAFDWLGRQVQTFLECTDAGASFVFGEKYKDHFFAFKVLPIVVFFSTVMSMLYYLGLMQWIIRKVGWIMLVTTGSSPIESVVASGNIFVGQTESPLLVRPYLPYITKSELHAIMTAGFSTIAGSVLGAYISFGVPSSHLLTASVMSAPASLAAAKLFWPETEKPKITLKNAMKMESGDSGNLLEAATQGASSSISLVANIAVNLIAFLALLSCMNSALSWFGNMFDYPQLSFELICSYIFMPFSFMMGVEWQDSFMVARLIGYKTFFNEFVAYEHLSKWIHLRKEGGPKFVNGVQQYISIRSEIIATYALCGFANIGSLGIVIGGLTSMAPSRKRDIASGAVRALIAGTVACFMTACIAGILSSTPVDINCHHVLENAFNSTFPGNTTKVIACCQSLLSSTVAKGPGEVIPGGNHSLYSLKGCCTLLNPSTFNCNGISNTF

Assays:
SEC = target: the molecule itself; test: SEC
cross-linking = target: the molecule itself; test: cross-linking

Protein	stoichiometry N (SEC)	stoichiometry N (cross-linking)
B1	3	–
B2	–	3
